Experimental data taken from patent US9791436B2, “Protease-based biosensor” (priority 2012, dated 2017).
Substitutions are numbered along the chain they refer to.

B1: 68-GP: thrombin-inducible autoinhibited TVMV biosensor, SEQ ID NO: 4 (protein)
chain: SSGSKALLKGVRDFNPISACVCLLENSSDGHSERLFGIGFGPYIIANQHLFRRNNGELTIKTMHGEFKVKNSTQLQMKPVEGRDIIVIKMAKDFPPFPQKLKFRQPTIKDRVCMVSTNFQQKSVSSLVSESSHIVHMRDTSFWQHWITTKDGQCGSPLVSIIDGNILGIHSLTHTTNGSNYFVEFPEKFVATYLDAADGWCKNWKFNADKISWGSFILWEDSGLVPRGVSGEGEYVRFGPGSTHHHHHH
modifications: protease construct
B2: 68-AP: thrombin-inducible autoinhibited TVMV biosensor, SEQ ID NO: 5 (protein)
chain: B1 chain with G239A
modifications: protease construct
B3: SH3-TVMV-AC-AI-37-2: SH3-domain-tagged TVMV-based allosteric receptor, SEQ ID NO: 28 (protein)
chain: SGGSGAEYVRALFDFNGNDEEDLPFKKGDILRIRDKPEEQWWNAEDSEGKRGMIPVPYVEKYRPASASVSALIGGRGGSGGSGGSGGSGGSGGSSKALLKGVRDFNPISACVCLLENSSDGHSERLFGIGFGPYIIANQHLFRRNNGELTIKTMHGEFKVKNSTQLQMKPVEGRDIIVIKMAKDFPPFPQKLKFRQPTIKDRVCMVSTNFQQKSVSSLVSESSHIVHKEDTSFWQHWITTKDGQCGSPLVSIIDGNILGIHSLTHTTNGSNYFVEFPEKFVATYLDAADGWCKNWKFNADKISWGSFILWESGSPELGFSISGGVGGRGNPFRPDDDGIFVTRVQPEGPASKLLQPGDKIIQANGYSFINIEHGQAVSLLKTFQNTVELIIVREVGNGAKQEIRVRVEKDGGSGGGGVSSVPTNLEVVAATPTSLLISWDAYRELPVSYYRITYGETGGNSPVQEFTVPGSKSTATISGLKPGVDYTITVYAHYNYHYYSSPISINYRGPGREYVRFAPGSTHHHHHH
modifications: protease construct
B4: 2B4-AP: thrombin-inducible autoinhibited TVMV biosensor, SEQ ID NO: 3 (protein)
chain: SSGSKALLKGVRDFNPISACVCLLENSSDGHSERLFGIGFGPYIIANQHLFRRNNGELTIKTMHGEFKVKNSTQLQMKPVEGRDIIVIKMAKDFPPFPQKLKFRQPTIKDRVCMVSTNFQQKSVSSLVSESSHIVHMRDTSFWQHWITTKDGQCGSPLVSIIDGNILGIHSLTHTTNGSNYFVEFPEKFVATYLDAADGWCKNWKFNADKISWGSFTLVEDAPSGLVPRGVSGEGETVRFAPGSTHHHHHH
modifications: protease construct
B5: 2B4-GP: thrombin-inducible autoinhibited TVMV biosensor, SEQ ID NO: 2 (protein)
chain: B4 chain with A241G
modifications: protease construct
B6: H6-143: thrombin-inducible autoinhibited TVMV biosensor, SEQ ID NO: 6 (protein)
chain: SSGSKALLKGVRDFNPISACVCLLENSSDGHSERLFGIGFGPYIIANQHLFRRNNGELTIKTMHGEFKVKNSTQLQMKPVEGRDIIVIKMAKDFPPFPQKLKFRQPTIKDRVCMVSTNFQQKSVSSLVSESSHIVHKEDTSFWQHWITTKDGQCGSPLVSIIDGNILGIHSLTHTTNGSNYFVEFPEKFVATYLDAADGWCKNWKFNADKISWGSFYLYEDAPEDFMSGLVPRGVGREYVRFAPGSTHHHHHH
modifications: protease construct
B7: H6-68: thrombin-inducible autoinhibited TVMV biosensor, SEQ ID NO: 7 (protein)
chain: B6 chain with Y217I, Y219W
modifications: protease construct
B8: H6-AP: thrombin-inducible autoinhibited TVMV biosensor, SEQ ID NO: 1 (protein)
chain: B6 chain with Y217T, Y219V, Y239T
modifications: protease construct

What was measured:
[1] = biological target: T1, bovine thrombin (Bos taurus, UniProt P00735); experiment: Thrombin induction of autoinhibited TVMV-based biosensor protease activity (quenched fluorescent TVMV substrate); type: biochemical; conditions: biosensor 1 μM, 10 μM protease substrate, presence vs absence of bovine thrombin (1 U per 200 μL)
T1 construct: addition of bovine thrombin (1 U per 200 μL)
Protocol: Libraries of autoinhibited TVMV mutants were transformed into chemically competent BL21(DE3)-RIL cells hosting the autolysis plasmid 05665 (FIG. 2A) and plated onto LB agar plates supplemented with 100 μg/mL carbenicillin, 50 μg/mL kanamycin and 34 μg/mL chloramphenicol. Following overnight incubation at 37° C., single colonies were inoculated into 96 deep-well plates filled with minimal auto-induction medium (1 mL) which was supplemented with 100 μg/mL carbenicillin, 50 μg/mL kanamycin and 34 μg/mL chloramphenicol. Cells were left to grow for 72 h at 30° C. at 320 rpm and typically reached OD values of approximately 10. To lyse cells, aliquots of cell cultures (100 μL) from half a 96-well-plate (48 samples) were diluted two-fold into autolysis medium (100 μL) and left to incubate for 90 min at 30° C. at 200 rpm. Aliquots of cell lysates (10 μL) were duplicated after transferring them into separate halves of a black 96-well-plate filled with protease assay buffer (140 μL). One of the halves additionally contained 1 U thrombin in order to cleave the linker connecting TVMV to its autoinhibition domain and relieve autoinhibtion. The reaction was initiated following the addition of substrate solution (50 μL) which gave rise to 10 μM TVMV substrate peptide in the final reaction. The reaction was monitored using a fluorometer (Biotek Synergy 4) by measuring the release of a quenched fluorophore (7-Methoxycoumarinyl-4-acetyl) at 405 nm following excitation at 330 nm. The induction of TVMV-based protease activities was evaluated by comparing the time course of the reactions in the presence and absence of thrombin. The plasmids encoding for desirable mutants were subsequently isolated from single colonies and their identity confirmed by Sanger sequencing.
To measure induction ratios under saturating reaction conditions, TVMV- and HCV-based signal transducers (5 μg) were pre-incubated for 10 min in 150 μL protease assay buffer (50 mM Tris-HCl, 1 mM DTT and 0.5 mM EDTA, pH 8.0 for TVMV, and 50 mM Tris-HCl, 50 mM NaCl and 1 mM DTT, pH 8.0 for HCV) in the presence and absence of the inducing protease: i.e. 1 U thrombin, 1 U Factor Xa, 5 μg PSA, 1 μg MMP-7 and 1 μg for MMP-9 for TVMV-based signal transducers as indicated, and 5 μg TVMV for HCV-based signal transducers. The reaction was initiated following the addition of 50 μL substrate solution that contained 40 μM peptide substrate and gave rise to 10 μM peptide substrate in a final reaction volume of 200 μL. The reaction was monitored using a fluorometer (Biotek Synergy 4) by measuring the release of 7-Methoxycoumarinyl-4-acetyl from the quenched substrate peptide at 405 nm following excitation at 330 nm. The induction ratio of TVMV-based protease activities in the inhibited and uninhibited state was evaluated by comparing the reaction in the presence and absence of the activating protease. Activity traces labelled as ‘Background’ generally denote control samples that contain peptide substrate, but no enzyme.
The biosensor (1 μM) was incubated together with 10 μM protease substrate in 50 mM Tris-HCl, 1 mM DTT and 0.5 mM EDTA. Relief of autoinhibition was achieved upon addition of bovine thrombin (1 U per 200 μL).

[2] = biological target: T2, PDZ ligand peptide-1 (RGSIDTWV) (Homo sapiens, UniProt Q96RT1); experiment: Protease signalling cascade: SH3-tagged TVMV-based allosteric receptor coupled to HCV-based signal amplifier, ligand titration; type: biochemical
T2 construct: made in house; host or cells: E. coli BL21(DE3)-RIL
Protocol: Signalling cascades consisting of SH3-domain-tagged TVMV-based allosteric receptors (10 nM) and SH3-peptide-tagged TVMV-inducible HCV-based signal transducers (200 nM) were measured in protease assay buffer consisting of 50 mM Tris-HCl, 200 mM NaCl and 1 mM DTT, pH 8.0. The reaction was strictly initiated by simultaneously adding the TVMV-based allosteric receptor and HCV substrate peptide to a final concentration of 10 μM along with the PDZ ligand peptide-1 ([…]) at a final concentration of 10 μM. To determine the KD of TVMV-based allosteric receptors, the PDZ ligand peptide-1 ([…]) was suitably diluted over a concentration range from 2 nM to 400 nM as indicated in FIG. 13B. To determine the KD, initial rates were plotted against ligand concentrations and the fitted values analysed by non-linear regression assuming a one-site specific binding model (GraphPad Prism 5).

| Molecule | Fold Induction [1] | improvement of the sensitivity of the assay [2] | concentration of receptor faithfully detected ([2]; FIG. 13B) |
| --- | --- | --- | --- |
| B1 | ~60 fold | – | – |
| B2 | ~100 fold | – | – |
| B3 | – | 20 fold | 5 nM |
| B4 | ~25 fold | – | – |
| B5 | ~17 fold | – | – |
| B6 | ~60 fold | – | – |
| B7 | ~150-200 fold | – | – |
| B8 | ~50 fold | – | – |
